Consider six molecules from US20220025029A1 (Regeneron, published 2022).

Numbering of substitutions follows the chain as printed. Names and notes keep the numbering of the source.

B1: H4H1232N (antibody, human IgG4, V domains shown)
VH: EVQLVESGGGLVKPGGSLRLSCAASGFTFRNYNINWVRQAPGKGLEWVSLISGSSSYIYYADSVKGRFTVSRDNAKNSLYLQMNSLRAEDTAVYYCARRTLSYYVMDVWGQGTTVTVSS
VL: DIQVTQSPSPLSASVGDRVTITCRASQGISNYLAWYQQKPGRVPQLLIYAASTLQSGVPSRFSGSGSGTDFTLTISSLQPEDVATYYCQKYNSAPYTFGQGTKLEIK
notes: human IgG4 Fc (H4H prefix)
B2: H4H2645P (antibody, human IgG4, V domains shown)
VH: EVQLVESGGGLVQPGGSLRLSCAASGFTFSTYAMHWVRQAPGKGLEWVSSISGRGRNSDHADSVKGRFTISRDNSKNTLYLQMNSLRAEDTAVYYCARTEYFHHWGQGTLVTVSS
VL: DIQMTQSPSSLSASVGDRITITCRASQDINNYLAWFQQKPGKAPKSLIYGASSLQSGVPSKFSGSGSGTDFTLTISSLQPEDFATYYCQQYSSYPFTFGPGTKVDIK
notes: human IgG4 Fc (H4H prefix)
B3: H4H1616N (antibody, human IgG4, V domains shown)
VH: EVELLESGGGLVQPGGSLRLSCAASGFTFSSYAMSWVRQAPGKGLEWVSSISGRVGSTHFADSVKGRFTFSRDNSKNTLYLQLSSLRAEDTAVYYCARSRGAAYFDYWGQGTLVTVSS
VL: DIQMTQSPSSLSASVGDRVTITCQANQDISNFLNWYQQRPGKAPNLLIYAASNLETGVPSRFSGSGSGTDFTFTISSLQPEDIATYYCQHYDNFPFTFGPGTKVDIK
notes: human IgG4 Fc (H4H prefix)
B4: H4H2864P (antibody, human IgG4, V domains shown)
VH: EVQLVESGGGLAQPGGSLRLSCAASGFTFNNYAMTWVRQAPGKGLDWVSAISDSGRSTFSADSVKGRFTISRDNSKNTLYLQMDSLRAEDTALYYCAKHRNWNYPVFDYWGQGTLVTVSS
VL: DIQLTQSPSFLSASVGDRVTITCWASQGISSYLAWYQQKPGKAPKLLIYSASTLQSGVPSRFSGSGSGTEFTLTISSLQPEDFATYYCQQLNSYPFTFGPGTKVDIK
notes: human IgG4 Fc (H4H prefix)
B5: H4H8751D (bispecific antibody, V domains shown)
VH 1: B2 VH with T31S, H35S, S50A, R56Y, S58A, H60Y, R98K, T99L, H103D, H104Y
VH 2: B1 VH
VL: DIQMTQSPSTLSASVGDRVTITCRASQSISSWLAWYQQKPGKAPKLLIYKASSLESGVPSRFSGSGSGTDFTLTISSLRPEDFATYYCQQYNSYPLTFGGGTKVEIK
notes: Bi-specific with a common kappa light chain on both Fab arms; human IgG4 Fc by the H4H prefix
B6: H4H3467D (bispecific antibody, V domains shown)
VH 1: B4 VH
VH 2: B1 VH
VL: B4 VL
notes: as for B5

The target of the first experiment is T1, natural Fel d1 (Indoor Biotech, #NA-FD1-2) (cat, UniProt P30438 23-92; P30440 18-109).
T1 construct: Bought natural heterodimeric glycoprotein, chains linked by disulfide bonds; also called nFel d1; nFel d 1
T1 sequence (P30438 other isoform, or with tags, fused parts or gaps, chain 1 of 2): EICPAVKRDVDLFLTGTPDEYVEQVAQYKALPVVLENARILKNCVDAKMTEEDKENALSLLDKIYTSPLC
T1 sequence (P30440 18-109, chain 2 of 2): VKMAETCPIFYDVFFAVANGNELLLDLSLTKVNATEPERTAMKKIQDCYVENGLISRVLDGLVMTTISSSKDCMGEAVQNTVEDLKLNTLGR
Nature of the experiment: SPR (Biacore), mAb captured, natural Fel d1 injected, 25 C.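 Further: rate constants obtained by fitting association and dissociation phases to a one-to-one binding model, with Kd and half-life derived from those rate constants.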
Consider B1, for which the Kd is 0.207 nM, the koff turned out to be 0.000331 s⁻¹, the on-rate (kon) was 1.6e+06 M⁻¹ s⁻¹ and the t1/2 was 35 min.

B2: the equilibrium dissociation constant (Kd) is 0.459 nM, the koff is 0.000261 s⁻¹, the kon is 569000 M⁻¹ s⁻¹ and the t1/2 worked out at 44 min.

In turn, B3 showed a dissociation constant Kd of 5.14 nM, a koff of 0.00124 s⁻¹, an on-rate (kon) of 241000 M⁻¹ s⁻¹ and a t1/2 of 9 min.

In turn, B4 gave a Kd of 0.801 nM, a koff of 0.00135 s⁻¹, a kon of 1.68e+06 M⁻¹ s⁻¹ and a t1/2 of 9 min.

The target of a further experiment is T1, natural Fel d1 (Indoor Biotech, …). As to the kind of experiment: Octet BLI sandwich; nFel d1 pre-complexed with captured mAb-1 H4H2864P (competitor); self-competition value subtracted.
B1: the “Response of mAb-2 Binding to nFel d1 pre-complexed with mAb-1” value (from here on “Response of mAb-2 Binding”) was found to be 0.3 nm.

In the case of B2, the “Response of mAb-2 Binding” value is -0.01 nm.

As for B3, the “Response of mAb-2 Binding” value was determined as 0.01 nm.

As for B4, the “Response of mAb-2 Binding” value is 0 nm.

For the next experiment the target is unchanged. Nature of the experiment: Octet BLI sandwich; nFel d1 pre-complexed with captured mAb-1 H4H1616N (competitor); self-competition value subtracted.
Take B1: the “Response of mAb-2 Binding” value came to 0.18 nm.

Consider B2, for which the “Response of mAb-2 Binding” value is -0.01 nm.

As to B3, the “Response of mAb-2 Binding” value was found to be 0 nm.

For B4, the “Response of mAb-2 Binding” value is -0.01 nm.

The target is the same in a further experiment. As to the kind of experiment: Octet BLI sandwich; nFel d1 pre-complexed with captured mAb-1 H4H2645P (competitor); self-competition value subtracted.
With B2, the “Response of mAb-2 Binding” value was found to be 0 nm.

Take B3: the “Response of mAb-2 Binding” value is 0.01 nm.

For B4, the “Response of mAb-2 Binding” value was -0.01 nm.

The target is the same in a further experiment. Nature of the experiment: Octet BLI sandwich; nFel d1 pre-complexed with captured mAb-1 H4H1232N (competitor); self-competition value subtracted.
In the case of B1, the “Response of mAb-2 Binding” value was 0 nm.

Consider B2, for which the “Response of mAb-2 Binding” value turned out to be 0.75 nm.

For B3, the “Response of mAb-2 Binding” value is 0.54 nm.

With B4, the “Response of mAb-2 Binding” value amounted to 0.71 nm.

The next experiment shares this target. As to the kind of experiment: SPR (Biacore 2000), mAb captured via anti-human Fc, nFel d 1 injected, 25 C.
Consider B1, for which the “600 nM nFel d 1 Bound (RU)” value was found to be 42 RU, the Kd is 0.155 nM, the dissociation rate constant (koff) worked out at 0.000472 s⁻¹ and the kon stood at 3.05e+06 M⁻¹ s⁻¹. This molecule had a t1/2 of 24 min.

Turning to B5, the “600 nM nFel d 1 Bound (RU)” value amounted to 30 RU, the dissociation constant (Kd) came out at 0.347 nM, the off-rate (koff) worked out at 0.00062 s⁻¹ and the kon came to 1.79e+06 M⁻¹ s⁻¹. The t1/2 was 19 min.

With B6, the “600 nM nFel d 1 Bound (RU)” value is 35 RU, the dissociation constant Kd was found to be 0.25 nM, the off-rate constant (koff) came out at 0.000712 s⁻¹ and the kon is 2.85e+06 M⁻¹ s⁻¹. Besides, the t1/2 amounted to 16 min.

The target is the same in the next experiment. As to the kind of experiment: Octet BLI sandwich; nFel d1 pre-complexed with captured mAb-1 H4H2636P (competitor); self-competition value subtracted.
B1: the “Response of mAb-2 Binding” value is 0.29 nm.

Take B2: the “Response of mAb-2 Binding” value was 0 nm.

With B3, the “Response of mAb-2 Binding” value is 0.01 nm.

As to B4, the “Response of mAb-2 Binding” value was determined as 0 nm.

For a further experiment the target is unchanged. As to the kind of experiment: Octet BLI, mAb captured on anti-hFc tip, 500 nM nFel d1.
Turning to B1, the “Amount of 500 nM nFel d1 Bound” value was 0.08 nm.

In the case of B2, the “Amount of 500 nM nFel d1 Bound” value amounted to 0.1 nm.

As for B3, the “Amount of 500 nM nFel d1 Bound” value was determined as 0.09 nm.

In the case of B4, the “Amount of 500 nM nFel d1 Bound” value worked out at 0.08 nm.

For the next experiment the target is unchanged. As to the kind of experiment: Octet BLI sandwich; nFel d1 pre-complexed with captured mAb-1 H4H1238N (competitor); self-competition value subtracted.
As for B1, the “Response of mAb-2 Binding” value was 0.76 nm.

In the case of B2, the “Response of mAb-2 Binding” value was determined as 0.62 nm.

B3: the “Response of mAb-2 Binding” value turned out to be 0.43 nm.

Regarding B4, the “Response of mAb-2 Binding” value worked out at 0.62 nm.

The next experiment has the same target. Nature of the experiment: Octet BLI sandwich; nFel d1 pre-complexed with captured mAb-1 H4H2597P (competitor); self-competition value subtracted.
For the molecule B1, the “Response of mAb-2 Binding” value is -0.03 nm.

As for B2, the “Response of mAb-2 Binding” value was 0.55 nm.

B3: the “Response of mAb-2 Binding” value amounted to 0.4 nm.

Regarding B4, the “Response of mAb-2 Binding” value was found to be 0.54 nm.

A further experiment shares this target. As to the kind of experiment: Octet BLI sandwich; captured mAb-1 H4H1300N, which did not pre-complex with nFel d1; self-competition value subtracted.
As to B1, the “Response of mAb-2 Binding” value is 0.02 nm.

B2: the “Response of mAb-2 Binding” value turned out to be 0.05 nm.

As for B3, the “Response of mAb-2 Binding” value was found to be 0.06 nm.

Consider B4, for which the “Response of mAb-2 Binding” value came out at 0.06 nm.
